{"source": "patent US11795454B2", "about": "“Targeted delivery system” (Cedars-Sinai Medical Center, priority 2009, dated 2023)", "key": {"HER2 siRNA": {"tested_on": "HER2 siRNA", "assay": "siRNA gel mobility shift assay", "format": "binding", "conditions": "50 pmol siRNA, increasing protein", "from_the_text": "The gel was stained with ethidium bromide to visualize siRNA and siRNA-protein complexes.\nOne goal was to assemble a noncovalent siRNA conjugate. […] The duplex, which was obtained from Invitrogen (Carlsbad, CA, USA), has been established elsewhere to specifically eliminate HER2 transcripts and thus induce apoptosis (Choudhury et al., 2004; Faltus et al., 2004)."}, "[1]": {"assay": "Ultrafiltration of HerPBK10-siRNA conjugates (100K mwco, high speed centrifugation)", "format": "physicochemical", "from_the_text": "FIGS. 6A-6B depict, in accordance with an embodiment described herein, HerPBK10-siRNA form stable conjugates that can be isolated by ultrafiltration. Conjugates were made in 0.1M Hepes/OptimemI buffer for 20′-RT, as described above. […] Filtrates and retentates were collected and loaded onto either a 2% agarose (FIGS. 6A and 6B, left panel) or 5% PAGE/native gel (FIG. 6B, right panel). Gels were stained for Et-Br to visualize siRNA and siRNA-protein complexes."}, "[2]": {"assay": "siRNA stability in serum, agarose gel electrophoresis", "format": "in vitro ADME, bovine", "conditions": "100% serum, 1 h at 37° C.", "source_text": "We examined the stability of siRNA conjugates in whole serum. […] Ethidium bromide staining of the agarose gel identifies the siRNA molecular size and relative concentration."}, "MDA-MB-231 (HER2−) cells": {"tested_on": "MDA-MB-231 (HER2−) cells", "assay": "Cell survival (crystal violet) after targeted or lipo-mediated siRNA delivery", "format": "cell-based, human", "protocol": "(§1) Complexes were prepared as described in FIG. 2. Un, untreated. In FIG. 12A, *, P<0.02 (HER2+ vs HER2− cells). In FIG. 12B, *, P<0.05 (compared to untreated). Significant differences determined by 2-tailed t tests."}, "MDA-MB-435 (HER2+) cells [3]": {"tested_on": "MDA-MB-435 (HER2+) cells", "assay": "Cell survival (crystal violet) after targeted or lipo-mediated siRNA delivery", "format": "cell-based, human", "protocol": "as §1"}, "[4]": {"tested_on": "HER2+ human breast cancer cells", "assay": "Survival of HER2+ cells in culture after targeted conjugate (summary)", "format": "cell-based", "conditions": "depending on the cell line", "from_the_text": "The inventors designed HerPBK10 to penetrate HER2+ cells by combining the ‘Her’ domain for binding heregulin receptors, which have an increased ligand affinity on HER2+ tumor cells, and the membrane lysis and intracellular trafficking features of the ‘PB’ domain, which is derived from the cell-entry functions of the Ad capsid. Binding and transport of nucleic acids can be mediated by the polylysine, ‘K10’ domain. […] Using in vivo fluorescence imaging, it was observed that the targeting ligand used here specifically accumulates at HER2+ tumor tissue in mice while evading accumulation in other tissues. It was also observed that HerPBK10 could mediate the uptake of a Cy3-labeled oligonucleotide in HER2+ cells. […] Associated with this reduction was substantial target cell death."}, "IFN-alpha [5]": {"tested_on": "IFN-alpha", "assay": "IFN-alpha secretion by sandwich ELISA, MDA-MB-435 cells", "format": "cell-based, human", "conditions": "complex at 10 and 50 nM siRNA dose, HerPBK10 equivalent to 50 nM dose, 24 h", "protocol": "(§2) FIGS. 13A-13B depict, in accordance with an embodiment herein, cytokine induction. […] At 24 h after treatment, media was collected from above the cells and assayed for (FIG. 13A) IFN-alpha, or (FIG. 13B) IFN-beta titer by sandwich ELISA following manufacturer's protocol (PBL Biomedical Laboratories). *, P<0.01 (compared to untreated); **, P=0.01 (HER2+ vs HER2− cells); †, P<0.05 (compared to untreated). Statistical significances determined by 2-tailed t tests.\n(§3) To examine whether cytokines contribute to the targeted toxicity observed earlier, the media of HerPBK10-siRNA (T7-transcribed)-treated HER2+ MDA-MB-435 and HER2− MDA-MB-231 cells were collected and assayed by ELISA for interferons alpha and beta. […] Given the overall low level of cytokine detected in the medium by all treatments, these differences are likely to have little relevance."}, "IFN-alpha [6]": {"tested_on": "IFN-alpha", "assay": "IFN-alpha secretion by sandwich ELISA, MDA-MB-231 cells", "format": "cell-based, human", "conditions": "24 h", "protocol": "as §2, §3"}, "HER2+ MDA-MB-435 tumors": {"tested_on": "HER2+ MDA-MB-435 tumors", "assay": "Tumor growth after intratumoral injection", "format": "in vivo, mouse", "conditions": "two IT injections a week apart, 1.5 nmoles siRNA", "protocol": "FIGS. 15A-15B depict, in accordance with an embodiment herein, effect on tumor growth. Female (6-8 week) nude mice were inoculated with human HER2+ MDA-MB-435 cancer cells by subcutaneous flank injections of 1×10^7 cells per injection. At 4-6 weeks after implant, weekly measurements were taken to quantify tumor volume and track growth. […] Complex was prepared as described in FIG. 14. FIG. 15A, representative mice at week 4 with tumors indicated by arrows.\nBefore testing for targeted toxicity of HerPBK10-siRNA, the inventors assessed cytotoxic potential in vivo after intratumoral (IT) injection of complexes in tumor-bearing mice. […] Blood was also collected after each injection to assess cytokine levels. […] Even though the complex was not delivered intravenously but rather by IT injection, there still appears to be an advantage to the targeted complex with regard to tumor toxicity."}, "IFN-alpha [7]": {"tested_on": "IFN-alpha", "assay": "In vivo cytokine induction, blood IFN-alpha ELISA after IT injection", "set-up": "species or system mouse", "conditions": "24 h after each IT injection, compared to saline control", "protocol": "FIG. 16 depicts, in accordance with an embodiment herein, in vivo cytokine induction. Blood was collected from the mice treated in FIG. 15B at 24 h after each IT injection and relative IFN-alpha levels quantified by sandwich ELISA following manufacturer's protocol (PBL Biomedical Laboratories). Control, tumors receiving saline injections. *, P=0.05 compared to control (as determined by 2-tailed unpaired T test).\nTo examine whether cytokines contribute to the tumor reduction observed and described herein, blood was collected from the same mice at 24 h after each IT injection and assayed for interferon (TFN)-alpha. […] It is possible that its indirect contribution results from enhanced tumor delivery, penetration, retention. Together with the tumor-shrinkage observed from these injections, these findings provide additional evidence that the targeted carrier, HerPBK10, can deliver both siRNA-mediated silencing and cytokine-mediated cytotoxicity to induce two-pronged targeted destruction to tumor cells."}, "[8]": {"tested_on": "HER2+ (MDA-MB-435) tumors", "assay": "In vivo tumor targeting of Cy5-labeled siRNA, fluorescence imaging", "set-up": "species or system mouse", "conditions": "tail vein injection", "from_the_text": "FIGS. 23A-23C depict in accordance with an embodiment herein, monitoring in vivo tumor targeting. […] The mice were immediately monitored by in vivo fluorescence intensity imaging through our collaborators' imaging facility (Farkas lab, Cedars-Sinai Medical Center). 23C, Analysis of the fluorescence intensity contrast between tumor and non-tumor areas of 23A and 23B (graphs)."}, "MDA-MB-435 (HER2+) cells [9]": {"tested_on": "MDA-MB-435 (HER2+) cells", "assay": "HerDox targeted toxicity in vitro, separate cultures", "format": "cell-based, human", "conditions": "10× molar excess", "protocol": "All treatments, N=3. FIG. 27A. Comparing cytotoxicity to HER2+ (MDAMB-435) and HER2− (MDA-MB-231) cells in separate cultures. Left, Relative survival (as % of untreated cells) on day 3 of treatment. Right, Micrograph of live cells after treatment. Control, mock (HBS) treatment. FIG. 27B, Receptor specificity of cytotoxicity. […] FIG. 27C, Toxicity to cells displaying differential HER2. Cytotoxicities from HerDox titrations were assessed on each cell line by metabolic assay and confirmed by crystal violet stain on day 3 of treatment. CD50 values (shown in log scale) were determined by non-linear regression analyses of HerDox killing curves using GraphPad Prism. The relative HER2 level of each cell line is shown next to each CD50 value. FIG. 27D, Targeting in a mixed MDA-MB-435(HER2+,GFP−)/MDA-MB-231(HER2−,GFP+) cell culture. Survival was determined by calculating the relative doubling time (DT) of experimental (exp) cells normalized by mock-treated (con) cells based on crystal violet stains (total cells) and GFP fluorescence (MDAMB-231 cells), and applying DTMDA-MB-435=DTTotal-DTMDA-MB-231 as previously described. Relative survival is shown for Day 2 of treatment. FIG. 27E, Targeted glioma cell death in vitro. U251 cells were treated once with the indicated HerDox (and competitive inhibitor where indicated) or Dox doses and measured for cell survival at the indicated time points after treatment. * P<0.05 compared to Mock.\nFor all in vitro treatments, cell lines were grown for ˜36 h after plating (104/well in 96-well dishes) to allow receptor re-expression, followed by media replacement with new media containing indicated constructs in reduced volume at the indicated final molarities for 4 h with rocking, followed by supplementation with additional media and continued growth for the indicated time periods. Except for the experiments performed on the U251 glioma cells (which received a one-time treatment), cells received these treatments daily while separate sets of wells were assessed for cell death by either metabolic assay (CellTiter Promega Corporation, Madison, WI, USA) or crystal violet stain each day. Where indicated, cells received competitive inhibitor (eHRG) at 10× molar excess for 30 min-1 h at 4° C. before treatment. Treatment of mixed (HER2+/HER2−) cell cultures with HerDox or Dox (0.5 uM), and cell surface receptor subunit level determination were performed as previously described."}}, "data": [{"molecule": "PB: penton base segment of adenovirus serotype 5 [reference compound]", "values": [{"measurement": "siRNA electromobility", "setting": "HER2 siRNA", "result": "did not"}]}, {"molecule": "HerPBK10-siRNA: noncovalent conjugate of HerPBK10 with anti-HER2 siRNA bound via electrophilic interaction (conjugate) LPPRLKEMKSQESAAGSKLVLRCETSSEYSSLRFKWFKNGNELNRKNKPQNIKIQKKPGKSELRINKASLADSGEYMCKVISKLGNDSASANITIVESNEIITGMPASTEGAYVSSESPIRISVSTEGANTSSSTSTSTTGTSHLVKCAEKEKTFCVNGGECFMVKDLSNPSRYLCKCQPGFTGARCTENVPMKVQNQEKAEELYMRRAAMYEEGPPPSYESVVSAAPVAAALGSPFDAPLDPPFVPPRYLRPTGGRNSIRYSELAPLFDTTRVYLVDNKSTDVASLNYQNDHSNFLTTVIQNNDYSPGEASTQTINLDDRSHWGGDLKTILHTNMPNVNEFMFTNKFKARVMVSRLPTKDNQVELKYEWVEFTLPEGNYSETMTIDLMNNAIVEHYLKVGRQNGVLESDIGVKFDTRNFRLGFDPVTGLVMPGVYTNEAFHPDIILLPGCGVDFTHSRLSNLLGIRKRQPFQEGFRITYDDLEGGNIPALLDVDAYQASLKDDTEQGGGGAGGSNSSGSGAEENSNAAAAAMQPVEDMNDHAIRGDTFATRAEEKRAEAEAAAEAAAPAAQPEVEKPQKKPVIKPLTEDSKKRSYNLISNDSTFTQYRSWYLAYNYGDPQTGIRSWTLLCTPDVTCGSEQVYWSLPDMMQDPVTFRSTRQISNFPVVGAELLPVHSKSFYNDQAVYSQLIRQFTSLTHVFNRFPENQILARPPAPTITTVSENVPALTDHGTLPLRNSIGGVQRVTITDARRRTCPYVYKALGIVSPRVLSSRTFKKKKKKKKKK", "values": [{"measurement": "Free siRNA in 100K filtrates", "setting": "[1]", "result": "low to no detection of free siRNA"}, {"measurement": "State of the siRNA (ethidium bromide staining)", "setting": "[2]", "result": "intact"}, {"measurement": "cell survival", "setting": "MDA-MB-231 (HER2−) cells", "result": "little to no effect"}, {"measurement": "cell survival", "setting": "MDA-MB-435 (HER2+) cells [3]", "result": "dose-dependent reduction in survival"}, {"measurement": "reduction in HER2+ cell survival", "setting": "[4]", "result": "up to 85%"}, {"measurement": "IFN-alpha secretion", "setting": "IFN-alpha [5]", "result": "substantially elevated"}, {"measurement": "IFN-alpha secretion", "setting": "IFN-alpha [6]", "result": "little affected"}, {"measurement": "tumor growth", "setting": "HER2+ MDA-MB-435 tumors", "result": "average reduction in tumor growth"}, {"measurement": "circulating IFN-alpha", "setting": "IFN-alpha [7]", "result": "elevated circulating IFN-alpha"}, {"measurement": "tumor retention", "setting": "[8]", "result": "tumor retention"}, {"measurement": "fluorescence intensity contrast between tumors and non-tumor areas", "setting": "[8]; all time points, compared to free siRNA", "result": "preferential tumor accumulation"}]}, {"molecule": "eHRG: competitive inhibitor, competing ligand of the heregulin receptor (protein, UniProt Q02297 20-242, looked up, extracellular domain) extracellular domain: SGKKPESAAGSQSPALPPRLKEMKSQESAAGSKLVLRCETSSEYSSLRFKWFKNGNELNRKNKPQNIKIQKKPGKSELRINKASLADSGEYMCKVISKLGNDSASANITIVESNEIITGMPASTEGAYVSSESPIRISVSTEGANTSSSTSTSTTGTSHLVKCAEKEKTFCVNGGECFMVKDLSNPSRYLCKCQPGFTGARCTENVPMKVQNQEKAEELYQKR", "values": [{"measurement": "effect of competitive inhibitor on cell killing by HerDox", "setting": "MDA-MB-435 (HER2+) cells [9]", "result": "prevented HER2+ cell killing"}]}]}
